Experimental data reported in US20200188528A1 (FRED HUTCHINSON CANCER RESEARCH CENTER, published 2020).

Target: BACE1 (beta-secretase, beta-site APP cleaving enzyme), endogenous enzyme of HEK/hAPP cells (human, UniProt P56817 46-501)
Assay: cell-based or functional assay

Sequence of BACE1 (beta-secretase, beta-site APP cleaving enzyme), endogenous enzyme of HEK/hAPP cells (P56817 46-501): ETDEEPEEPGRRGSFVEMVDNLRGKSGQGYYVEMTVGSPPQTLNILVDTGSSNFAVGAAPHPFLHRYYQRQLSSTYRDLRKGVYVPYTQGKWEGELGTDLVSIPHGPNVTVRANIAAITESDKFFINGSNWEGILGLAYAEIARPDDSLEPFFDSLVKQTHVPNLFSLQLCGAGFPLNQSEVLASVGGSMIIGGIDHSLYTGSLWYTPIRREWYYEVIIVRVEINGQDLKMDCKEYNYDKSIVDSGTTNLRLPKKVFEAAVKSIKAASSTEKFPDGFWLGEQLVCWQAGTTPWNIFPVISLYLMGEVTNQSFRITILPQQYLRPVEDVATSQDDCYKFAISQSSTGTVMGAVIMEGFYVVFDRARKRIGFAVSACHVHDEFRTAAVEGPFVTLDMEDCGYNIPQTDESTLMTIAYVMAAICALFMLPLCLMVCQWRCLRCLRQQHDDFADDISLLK

B1: anti-BACE1 peptide-antibody complex (peptide of SEQ ID NO: 1 fused to the anti-BACE1 antibody heavy chain, SEQ ID NO: 429, assembled with the anti-BACE1 … (antibody)
heavy: not shown
light: DIQMTQSPSSLSASVGDRVTITCRASQDVSTAVAWYQQKPGKAPKLLIYSASFLYSGVPSRFSGSGSGTDFTLTISSLQPEDFATYYCQQFPTYLPTFGQGTKVEIKRTVAAPSVFIFPPSDEQLKSGTASVVCLLNNFYPREAKVQWKVDNALQSGNSQESVTEQDSKDSTYSLSSTLTLSKADYEKHKVYACEVTHQGLSSPVTKSFNRGEC
  IC50 (read off the curve), Aβ1-40 secretion from HEK/hAPP cells (HTRF, Percent of Cntl): ~10 nM

B2: anti-BACE1 antibody comprising an anti-BACE1 antibody heavy chain of SEQ ID NO: 427 and an anti-BACE1 antibody light chain of SEQ ID NO: 428 (antibody, human IgG1, kappa)
heavy: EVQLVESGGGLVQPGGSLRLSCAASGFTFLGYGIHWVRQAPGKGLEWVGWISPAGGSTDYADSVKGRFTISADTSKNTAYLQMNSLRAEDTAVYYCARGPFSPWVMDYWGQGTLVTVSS
light: DIQMTQSPSSLSASVGDRVTITCRASQDVSTAVAWYQQKPGKAPKLLIYSASFLYSGVPSRFSGSGSGTDFTLTISSLQPEDFATYYCQQFPTYLPTFGQGTKVEIKRTVAAPSVFIFPPSDEQLKSGTASVVCLLNNFYPREAKVQWKVDNALQSGNSQESVTEQDSKDSTYSLSSTLTLSKADYEKHKVYACEVTHQGLSSPVTKSFNRGEC
  IC50 (read off the curve), Aβ1-40 secretion from HEK/hAPP cells (HTRF, Percent of Cntl): ~10 nM
